According to publication PMC8439434 (2021):
Like-named read-outs stand apart in the source and are kept apart here.

B1: peptide 3424.0028 (IRSSYIRVL, DNA replication licensing factor MCM5 289-297) (peptide)
peptide: IRSSYIRVL
B2: SARS-CoV-2 nucleocapsid peptide SRGTSPARM (R203/G204) (peptide)
peptide: SRGTSPARM

Columns and labels:
HLA-B*08:01 [1] = biological target: T1, HLA-B*08:01 (human (endogenous in the Steinlin EBV …))
HLA-B*08:01 [2] = biological target: T1, HLA-B*08:01; remark: listed apart in the source
[3] = biological target: HLA-C*07:01 purified from the Steinlin EBV transformed homozygous cell line (human (endogenous in the Steinlin EBV …))

Row | Binder | IC50 (HLA-B*08:01 [1]) [µM] | IC50 (HLA-B*08:01 [2]) [µM] | IC50 [3] [µM]
1 | B1 | 0.301 | – | –
2 | B2 | – | > 50 | > 50
